Reference: the RNAGym collection of RNA variant scans (doi:10.1073/pnas.2313332121)

B1: TPR t1 (parent)
chain: GACCAAUCUGCCCUCAGAGCUCGAGAACAUCUUCGGAUGCAGAGGAGGCAGGCUUCGGUGGCGCGAUAGCGCCAACGUCCUCAACCUCCAAUGCAUCCCACCACAUGAUGAUGCCUGAAGAGCCUUGGUUUUUUG

Variants of: B1
Assay: polymerase ribozyme fitness, log enrichment relative to wild type (log ratio); higher = more active; in vitro selection for triplet polymerase activity
Outline: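 Both subunits of a heterodimeric triplet polymerase ribozyme were given their own mutant library, built by PCR and transcribed. Each library was annealed with a biotinylated primer, the partner subunit and triplets, incubated frozen at −7 °C, and its extended constructs gel-excised, captured on streptavidin beads and amplified by RT-PCR, all in one round done in triplicate. Fitness is the logarithm of genotype enrichment relative to wild-type enrichment, with replicates averaged by inverse-variance weighting. That logarithm is base 2, and Illumina-sequenced genotypes needed ≥10 input reads and ≥1 read per output.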

Variant	polymerase ribozyme fitness (log ratio)
GACCAAUCUGCCCUCAGAGCUCGAGAACAUCUUCGGAUGCAGAGGAGGCAGGCUUCGGUGGCGCGAUAGCGCCAACGUCCUCAACCUCCAAUGCAUCCCACCACAUGAUGAUGCCUGAAGAGCCUUAGAUUUUUG [G127A U129A]	-1.26
GACCAAUCUGCCCUCAGAGAUCGAGAACAUCUUCGGAUGCAGAGGAGGCAGGCUUCGGUGGCGCGAUAGCACCAACGUCCUCAACCUCCAAUGCAUCCCACCACAUGAUGAUGCCUGAAGAGCCUUGGGUUUUUG [C20A G71A U129G]	-5.06
GACCAAUCUGCCCUCAGAGCUCGAGAACAUCUUCGGAUGCAGAGGAGGCAGGCUUCGGUGGCGCGAUAGCGCCAACGUCCUCAACCACCAAUGCAUCCCACCACAUGAUCAUGCCUGAAGAGCCUUGGUUUUUUG [U87A G110C]	-3.47
GACCAAUCUGCCCUCAGCGCUCGAGAACUUCUUCGGAUGCAGAGGAGGCAGGCUUCGGUGGCGCGAUAGCGCCAACGUCCUCAACCUUUAAUGCAUUCCACCACAUGAUGAUGCCUGAAGAGCCUUGGUUUUUUG [A18C A29U C88U C89U C97U]	-4.49
GACCAAUCUGCCCUCAGAGCUCGAGAACAUCUUCGGAUGCAGAGGAGGCAAGCUUCUGUGGCGCGAUAGCGCCAACGUCCUCGUCCUCCAAUGCAUCCCACCACGUGAUGAUGCCUGAAGAGCCUUGGUGUUUUG [G51A G57U A83G A84U A105G U130G]	-6.12
GACCAUUCUGCCCUCAGAGCUCGAGAACAUCUUCGGAUGCAGAAGAGGCAGGCUUCGGUGGCGCGAUAGCGCUAACGUCCUCAACGUCCAAUGCAUCCCACCACAUGAUGAUGCCUGAAGAGCCUUGGUUUUUUG [A6U G44A C73U C86G]	-3.18
GACCAAUCUGCCCUCAGAGCUCGAGAACAUCUUCGGAUGCAGAGGAGGCAGGCUUCGGUGGGGCGAUAGCGCCAACGUCCUCAACCUCCAAUGCAUCCCACCACAUGAUGAUGCCUGAAGAGCUUUGGUUUUUUG [C62G C124U]	0.784
GACCAAUCUGGCCUCAGAGCUUGAGAACAUCUUCGGAUGCAGAUGAGGCAGGCUUCGGUGGCGCGAUAGCGCCAACGUCCUCAACCUCCAAUGCAUCCCACCACAUGAUGAUGCCUGAAGAGCCUUGGUUUUUUG [C11G C22U G44U]	-4.93
GACCAAGCUGCCCUCAGAGCUCGAGAACAUCUUUGGAUGCAGAGGAGGCAGGCUUCGGUGGCGCGAUAUCGCCAACGUCCUCAACCUCCAAUGCAUCCCACUACAAGAUGAUGCCUGAAGAGCCUUGGUUUUUUG [U7G C34U G69U C102U U106A]	-0.632
GACCAAUCUGCCCUCAGAGCUCGAGAACAUCUUCGGAUGCAGAGGAGGAAGGCUUCGGUGGCGCGAUAGCGCCAACGUCCCCAACCUCCAAUGCAUCCCACCACAUGAUGAUGCCUGAAGAGCCUUGGUUUUUUG [C49A U81C]	-2.67
GACCAAUCUGCCCUCAGAGCUCGAGAACAUCUUCGGAUGCAGAGGAGGCAGGCUUCGGUGGCGCGAUAGCGCCAACGUCCUCAACCUCCAAUGCAUCCCACCACAUGAUGAUGCUUAAAGAGCCUUGGUUUUUUG [C115U G117A]	-1.61
GACCAAUCUGCCCUCAGAGCUCGAGAGCAUCUUCGGAUGCAGAGGAGGCAGGCUUCGGUGGCGCGAUAGCGCCAACGUCCUCAACCUCCAAUGCAUCCCACCACCUGAUGAUGCCUGAAGAGCCUUGGUUUUUUG [A27G A105C]	-3.41
GACCAAUCUGCCCUCAGAGCUCGAGAACAUCUUCGGAUGCAGAGGAGGCAGGCUUCGGUGGCGCGAUAGCGCCAAAGACCUCAACCUCCAAUGCAUCCCACCACAUGAUGAUGCCUGUAGAGCCUUGGUUUUUUG [C76A U78A A118U]	0.066
GACCAAUCUGCCCUCAGAGCUCGAGAACAUCUUCGGAUGCCGAGGAGGCAGGCUUGGGUGGCGCGAUAGCGCCCACGUCCUCAACCUCCAAUGCAUCCCACCACAUGAUGAUGCCUGAAGAGCCUUGGUUUUUUG [A41C C56G A74C]	-5.29
GACCAAUCUGCCCUCAGAGCACGAGAACAUCUUCGGAUGCAGAGAAGGCAGGCUUCGGGGGCGCGAUAGCACCAACGUCCUCAACCUCCAAUGCAUCCCACCACAUGAUGAUGCCUGAAGAGCCUUGGUUUUUUG [U21A G45A U59G G71A]	-4.25
GAGCAAUCUGCCCUCAGAGCUCGAGAACAUCUUCGGAUGCAGAGGAGGUAGGCUUCGGUGGCGCGAUAGCGCCAACGACCUCAACCUCCAAUGCAUCCCACCACAUGAUGAUGCAUGAAGAGCCUUGGUUUUUUG [C3G C49U U78A C115A]	-3.75
GACCAAUCUGCCCUCAGAGCUCGAGAACAUCUUCGGAUGCAGAGGAGGCAGGCUUCGGUGGCGCGAUAGCGCCAACGUCCUCAACCUCCAAUGAAUCCCACCACAUGAUGAUGCCUGAAGAGCCUUUGUUUUUGU [C94A G127U U134G G135U]	-2.31
GACCAAUCUGCCCUCAGAGCUCGAGAACAUCUUCGGAUGCAGAGGUGGCAGGCUUCGGUGGCGCGAUAGUGCCAACGUGCUCAACCUCCAAUGCAUCCCACCACAUGAUGAUGCCUGAAGAGCCUUGGUCUUUUG [A46U C70U C79G U130C]	-4.73
GACCAAUCUGCCCUCAGAGCUCGAGAACAUCUUCGGAUGCAGAGGAGGCCGGCUUCGGUGGCGCGAUAGCGCCAACGUCCUCAACCUCCAAUGCAUCCCACCACAUAAUGAUGCCUGAAGAGCCUUGGUUUUUUG [A50C G107A]	-6.09
GACCAAUCUGCCCUCAGAGCUCGAGAACAUCUUCGGAUGCAGAGGAGGCAGGCUUCGGUGGCGCGAUAGCACCAACGUCCUCAACCUCCAAUGCAUCCCACAACAUGAUGAUGCCUGAAGAGCCUUGGUUUUUUG [G71A C102A]	-2.99
GACUAAUCUGCCCUCAGAGCUCGAGAACAUCUUCGGAUGCAGAGGAGGCAGGCUUCGGUGGCGCGAUAGCGCCAACGUCCUCAACCUCCAAUGCAUCCCACCACAUGAUUAUGCCUGAAGAGCCUUGGUUUUUUG [C4U G110U]	-1.93

Variant	polymerase ribozyme fitness (log ratio)
GACCAAUCUGCCCUCAGAGCUCGAGAACAUCUUCGGAUGCAGAUGAGGCAGGCUUCGGUGGAGCGAUAGCGCCAACGUCCUCAACCUCCGAUGCAUCCCACCACAUGAUGAUGCCUGAAGAGCCUUGGUUUUUUG [G44U C62A A90G]	-2.16
GACCAAUCUGCCCUCAGAGCUCGAGAACAUCUUCGGACGCAGAGGAGGCAGGGUUCGGAGGCGCGAUAGCGCCAACGUCCUCAACCUCCAAUGCAUCCCACCACAAGAUGAUGCCUGAAGAGCCUUGGUUUUUUG [U38C C53G U59A U106A]	-0.127
GACCAAUCUGCCCUCAGAGCUCGAGAACAUCUUCGGAUGCAGAGGAGGCAGGCUUCGGUGGCGCGAUAGCGCAAACGUCCUCAACCUCCAAUGCAUCCCACCGCAUGAUAAUGCCUGAAGAGCCUUGGUUUUUUG [C73A A103G G110A]	-6.42
GACCAUUCUGCCCUCAGAGCUCGAGAACAUCUUCGGAUGCAGAGGAGGCAGGCUUCGGUGGCGCGAUAGCGCCAAGGUCCUCAACCUCCAAUGCAUCCCACCACAUGAUGAUGCCUGAAGAGCCUUGGUUUUUUG [A6U C76G]	-0.287
GACCAAUCUGCCCUCAGAGCUCGAGAACAUCUUCGGAUGCAGAGGAGGCAGGCUUAGGUGGCGCGAUAGCGCCAACGUCCUCAACCUCCAAUGCAUCCCACCAGAUGAUGAUGCCUGGAGAGCGUUGGUUUUUUG [C56A C104G A118G C124G]	-5.79
GACCAAUCUGCCCUCAGAGCUCGAGAACAUCUUCGGAUGCGGAGUAGGCAGGCUUGGGUGGCGCGAUAGCGCCAACGUCCUCAACCUCCAAUGCAUCCCACCACAUGAUGAUGCCUGAAGAGCAUUGGUUUUUUG [A41G G45U C56G C124A]	-0.22
GACCAAUCUGCCCUCAGAGCUCGAGAACAUCUUCGGAUGCACAGGAGGCAGGCUUCGGUGGCGCGAUAGCGCCAACGUCCUCAACCUCCAAUGCAUCCCAUCACAUGAUGAUGCCUGAAGAGCCUUGGUUUUUUG [G42C C101U]	-1.45
GACCAAUCUGCCCUCAGAGCUCGAGACCAUCUUCGGAUGCAGAGGAGGCAGGCUUCGGUGGCGCGAGAGCGCCAACGUCCUCAACCUCCAAUGCAUCCCACCACAUAAAGAUGCCUGAAGAGGGUUGGUUUUUUG [A27C U67G G107A U109A C123G C124G]	-6.73
GACCAAUCUGACCUCAGAGCUCGAGAACAUCUUCGGAUGCAGAGGAGGCAGGCUUCGGUGGCGCGAUAGCGCCAUCGUUCUCAAACUCCAAUGCAUCCCACCACAUGAUGAUGCCUGAAGAGCCUUGGUUUUUUG [C11A A75U C79U C85A]	-2.71
GACCAAUCUGCCCUCAGAGCUCGAGAACAUCUUCGGAUGCAGAGGAGGCAGGCUUCGGUGGCGCGAUAGCGCCAUUGUCCUCAACCUCCAAUGCAUCCCACCACAUGAUGAUGCCUGAAGAGCCUUGGUUUUUUG [A75U C76U]	-1.57
GACCAAUCUGCCCUCAGAGCUCGAGACCAUCUUCGGAUGCAGAGGAGGCAGGCUUCGGUGGCGCGAUAGCGCCAACGUCCUCAGCCUCCAAUGCAUCCCACCACAUGAUGAUGCCUGAAGAGCCUUGGUUUUUUG [A27C A84G]	-5
GACCAAUCUGCCCUCAGAGCUCGAGAACAUCUUCGGAUGCAGAGGAGGGAGGCUUCGGUGGCGCGAUACCGCCAACGCCCUCAACCUCCAAUGCAUCCCACCACAUGAUGAUGCCUGAAGAGCCUUGGUUUUUUG [C49G G69C U78C]	-2.8
GACCAAUCUGCCCUCAGAGCUCGAGAACAUCUUCGGAUGCAGAGGAGGCAGGCUUCGGUGGCGCGAUAGCGCAAACGUCCUCAACCUCCAAUGCAUCCCAUCACAUGAUGAUGCCUGAAGAACCUUGGUUCUUUG [C73A C101U G122A U131C]	-1.18
GACCAAUCUGCCCUUAGAGCUCGAGAACAUCUUCGGAUGCAGAGGAGGCAGGGUUCGGUGGCGAGAUAGCGCCAACGUCCUCAACCUCCAAUGCAUCCCACCAAAUGAUGAUGCCUGAAGAGCUUUGGUUUUUUG [C15U C53G C64A C104A C124U]	-6.1
GACCAAUCUGCCCUCAGAGCUCGAGAACAUCUUCGGAUGCAGAGGAGGCAGGCUUCGGUGGCGCGAUAGCGCCAACGACCUCAACCGCCAAUGCAUCCCACCACAUGAUGAUGCCUGAAGAGCCUUGGUUUUUUG [U78A U87G]	-0.804
GACCAAUCUGCCCUUAGAGCUCGAGAACAUCUUCGGAUGUAGAGGAGGCAGGCUUCGGUGUCGCGAUAGCGCCAACGUCCUCAACCUCCAAUGCAUCCCACCACAUGAUGAUGCCUGAAGAGCCUUGGUUUUUUG [C15U C40U G61U]	-0.881
GACCAAUCUGCCCUCAGAGCUCGAGAACAUCUUCGGAUGCAGAGGAGGCAGGCUUCGGUUGCGCGAUAGCGCCAACGUCCUCAACCACCAAUGCAUCCCACCACAUGAUGAUGCCUGAAGAGCCUCGGUUUUUUG [G60U U87A U126C]	-0.499
GACCAAUCUGCCAUCAGAGCUCGAGAACAUCUUCGGAUGCAGAGGAGGCAGGGAUCGGUGGCGCGAUAGCGCCAACGUCCUCAACCUCCAAUGCAUCCCACCACAUGAUGAUGCCUCAAGAGCCUUGGUUUUUUG [C13A C53G U54A G117C]	-4.98
GACCAAUCUGCCCUCAGAGCUCGAGAACAUCUUCGGAUGCAGAGGAUGCAGGCUUCGGUGGCGCGAUAGCGCCAACGUCCUCAACCUCCAAUGCAUCCCACCACAUGAUGAUGCCUGAAGAGCCUUGGUUUUUUC [G47U G135C]	-1.39
GACCAAUCUGCCCUCAGAGCUCGAGAACAUCUUCGGAUGCAGAGGAGGCAGGCUUGGGUGGCGCGAUAGCCCCAACGUCCUCAACCUCCAAUGCAUCCCACCACAUGAUGAUGCCUGAAGAGCCUUGGUUUUUUG [C56G G71C]	-3.19
GACCAAUCUGCCUUCAGAGCUCGAGAACAUCUUCGGAUGCAGAGGAGUCAGGCUUCGGUGGCGCGAUAGCGCUAACGUCCUCAACCUCCAAUGCAUCCCACCACAUGAUGAUGCCUGAAGAGCCUUGGUGUUUUG [C13U G48U C73U U130G]	-0.119
